According to publication PMC8571288:

Key:
[1] = target: CST complex (CTC1-STN1-TEN1) (Homo sapiens) (UniProt Q2NKJ3+Q9H668+Q86WV5); experiment: smFRET; settings: smFRET: 25 mM Tris-HCl pH 7.5, 0.5 mM EDTA, 10% glycerol, 50 or 150 mM KCl (temperature not stated), pull-down: 35 mM Tris-HCl pH 7.5, 10% glycerol, 0.01% …
[2] = target: RPA complex (Homo sapiens) (UniProt P27694+P15927+P35244); experiment: smFRET; settings: smFRET: 25 mM Tris-HCl pH 7.5, 0.5 mM EDTA, 10% glycerol, 50 or 150 mM KCl (temperature not stated), pull-down: 35 mM Tris-HCl pH 7.5, 10% glycerol, 0.01% …
Sequence of RPA complex (Homo sapiens) (P27694 whole entry, chain 1 of 3): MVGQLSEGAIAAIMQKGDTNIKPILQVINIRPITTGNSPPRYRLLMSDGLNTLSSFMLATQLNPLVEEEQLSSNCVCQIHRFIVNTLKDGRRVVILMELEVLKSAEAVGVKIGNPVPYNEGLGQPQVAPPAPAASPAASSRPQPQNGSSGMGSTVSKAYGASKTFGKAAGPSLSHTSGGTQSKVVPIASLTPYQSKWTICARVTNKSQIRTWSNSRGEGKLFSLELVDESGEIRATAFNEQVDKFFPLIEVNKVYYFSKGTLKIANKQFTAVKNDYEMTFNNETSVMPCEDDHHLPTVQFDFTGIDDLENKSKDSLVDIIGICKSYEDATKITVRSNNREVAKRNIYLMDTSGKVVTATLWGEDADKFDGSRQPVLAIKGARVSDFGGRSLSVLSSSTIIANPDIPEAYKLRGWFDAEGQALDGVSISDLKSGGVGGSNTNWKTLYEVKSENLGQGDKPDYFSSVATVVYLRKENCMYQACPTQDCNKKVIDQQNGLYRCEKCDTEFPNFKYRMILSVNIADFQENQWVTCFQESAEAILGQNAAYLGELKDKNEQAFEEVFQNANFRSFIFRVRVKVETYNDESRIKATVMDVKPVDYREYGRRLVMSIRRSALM
Sequence of RPA complex (Homo sapiens) (P15927 whole entry, chain 2 of 3): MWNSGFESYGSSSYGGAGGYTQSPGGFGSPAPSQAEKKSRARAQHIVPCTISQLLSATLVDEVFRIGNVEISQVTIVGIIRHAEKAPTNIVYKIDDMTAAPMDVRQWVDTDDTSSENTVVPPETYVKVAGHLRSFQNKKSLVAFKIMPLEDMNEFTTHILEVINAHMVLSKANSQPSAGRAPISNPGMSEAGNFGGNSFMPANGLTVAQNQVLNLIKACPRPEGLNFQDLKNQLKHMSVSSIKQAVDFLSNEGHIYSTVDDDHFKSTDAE
Sequence of RPA complex (Homo sapiens) (P35244 whole entry, chain 3 of 3): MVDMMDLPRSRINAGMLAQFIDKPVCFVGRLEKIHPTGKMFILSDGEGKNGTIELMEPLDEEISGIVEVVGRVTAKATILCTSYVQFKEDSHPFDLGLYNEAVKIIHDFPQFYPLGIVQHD

Sequence of CST complex (CTC1-STN1-TEN1) (Homo sapiens) (Q2NKJ3 whole entry, chain 1 of 3): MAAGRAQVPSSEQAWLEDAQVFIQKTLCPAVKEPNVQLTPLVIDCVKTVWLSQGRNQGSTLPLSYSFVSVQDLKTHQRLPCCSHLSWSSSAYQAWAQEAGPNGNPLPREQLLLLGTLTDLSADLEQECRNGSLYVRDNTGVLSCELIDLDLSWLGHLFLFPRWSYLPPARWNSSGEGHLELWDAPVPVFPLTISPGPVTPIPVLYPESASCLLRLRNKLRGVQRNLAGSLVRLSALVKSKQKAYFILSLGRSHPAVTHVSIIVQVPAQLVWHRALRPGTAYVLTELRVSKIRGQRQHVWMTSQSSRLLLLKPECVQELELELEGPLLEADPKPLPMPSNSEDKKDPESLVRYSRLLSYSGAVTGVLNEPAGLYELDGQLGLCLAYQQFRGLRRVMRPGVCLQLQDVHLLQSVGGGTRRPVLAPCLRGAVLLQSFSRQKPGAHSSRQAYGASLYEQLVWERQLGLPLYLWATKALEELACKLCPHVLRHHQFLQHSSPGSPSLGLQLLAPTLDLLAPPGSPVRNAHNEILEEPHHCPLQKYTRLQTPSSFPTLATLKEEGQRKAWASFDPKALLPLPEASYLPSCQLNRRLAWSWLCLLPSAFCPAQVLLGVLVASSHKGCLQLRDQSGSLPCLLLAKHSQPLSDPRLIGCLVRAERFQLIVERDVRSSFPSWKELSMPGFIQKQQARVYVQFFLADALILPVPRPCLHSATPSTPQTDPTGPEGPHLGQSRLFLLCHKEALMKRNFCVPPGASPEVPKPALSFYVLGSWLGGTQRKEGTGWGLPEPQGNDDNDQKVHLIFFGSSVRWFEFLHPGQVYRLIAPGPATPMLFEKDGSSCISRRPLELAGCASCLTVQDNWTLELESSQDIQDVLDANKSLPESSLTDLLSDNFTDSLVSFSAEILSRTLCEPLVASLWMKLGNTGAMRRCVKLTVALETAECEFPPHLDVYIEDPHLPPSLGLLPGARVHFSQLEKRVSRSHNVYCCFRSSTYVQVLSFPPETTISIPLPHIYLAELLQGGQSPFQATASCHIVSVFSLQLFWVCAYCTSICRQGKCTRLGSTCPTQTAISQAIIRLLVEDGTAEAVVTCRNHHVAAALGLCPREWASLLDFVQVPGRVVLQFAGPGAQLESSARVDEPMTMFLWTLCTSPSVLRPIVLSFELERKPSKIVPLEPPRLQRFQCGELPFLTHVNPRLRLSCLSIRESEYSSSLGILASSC
Sequence of CST complex (CTC1-STN1-TEN1) (Homo sapiens) (Q9H668 whole entry, chain 2 of 3): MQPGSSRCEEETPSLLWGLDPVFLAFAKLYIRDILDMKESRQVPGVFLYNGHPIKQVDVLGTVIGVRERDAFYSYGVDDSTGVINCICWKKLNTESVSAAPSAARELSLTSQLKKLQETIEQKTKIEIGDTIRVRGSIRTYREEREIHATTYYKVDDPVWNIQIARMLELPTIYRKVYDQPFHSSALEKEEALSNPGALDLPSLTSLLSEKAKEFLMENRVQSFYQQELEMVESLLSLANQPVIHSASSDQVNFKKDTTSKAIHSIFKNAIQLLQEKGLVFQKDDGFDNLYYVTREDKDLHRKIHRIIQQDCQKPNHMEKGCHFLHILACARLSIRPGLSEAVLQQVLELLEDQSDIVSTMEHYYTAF
Sequence of CST complex (CTC1-STN1-TEN1) (Homo sapiens) (Q86WV5 whole entry, chain 3 of 3): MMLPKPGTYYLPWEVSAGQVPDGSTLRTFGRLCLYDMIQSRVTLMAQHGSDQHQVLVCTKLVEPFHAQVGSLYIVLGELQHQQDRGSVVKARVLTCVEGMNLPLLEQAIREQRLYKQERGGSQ

Work on “ACGCTGCCGAATTCTACCAGTGCCTTGCTAGGACATCTTTGCCCACCTGCAGGTTCACCC / GGGTGAACCTGCAGGTGGGCAAAGA [35-nt ssDNA overhang (Oligo 5+6)]” yielded a Kd ([1]; 50 mM KCl, Hill slope 2.74) of 0.12 nM, a Kd ([1]; 150 mM KCl, Hill slope 1.4) of 0.29 nM and a Kd ([2]; 50 mM KCl, Hill slope 3.14) of 0.12 nM. For the same sequence, the Kd ([2]; 150 mM KCl, Hill slope 2.83) was 0.11 nM.
